Experimental data reported in publication PMC3617563.

Target: C276A USP2 catalytic core (inactive active-site mutant) (human) (UniProt O75604)
Assay: stopped-flow fluorescence

Sequence of C276A USP2 catalytic core (inactive active-site mutant) (human) (O75604 259-605 C276A): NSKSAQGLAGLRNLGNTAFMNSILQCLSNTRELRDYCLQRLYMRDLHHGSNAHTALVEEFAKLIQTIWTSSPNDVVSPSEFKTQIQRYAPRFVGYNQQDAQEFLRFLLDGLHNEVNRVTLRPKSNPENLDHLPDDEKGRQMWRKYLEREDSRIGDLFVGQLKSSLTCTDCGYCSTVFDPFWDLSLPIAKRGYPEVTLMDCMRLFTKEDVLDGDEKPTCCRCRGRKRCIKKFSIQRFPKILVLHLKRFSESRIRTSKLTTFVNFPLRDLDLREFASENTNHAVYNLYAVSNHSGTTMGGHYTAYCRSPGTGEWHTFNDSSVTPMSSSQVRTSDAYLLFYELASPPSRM

k1 (first step, association): 230000 M⁻¹ s⁻¹
k−1 (first step, dissociation): 0.06 s⁻¹
Substance: native K48-linked diubiquitin (from UniProt P0CG48 1-76)
